Results taken from the supplement of paper PMC7877785.
± gives the uncertainty stated by the source.

Assay: self-splicing fitness, log relative to wild type (ln ratio); higher = more splicing; Tetrahymena group I intron in knt gene, E. coli kanamycin selection, DiMSum; sequences stand for … in CUCUCU…GGAGGGAAAAGUUAUCAGGCAUGCACCUGGUAGCUAGUCUUUAAACCAAUAGAUUGCAUCGGUUUAAAAGGCAAGACCGUCAAAUUGCGGGAAAGGGGUCAACAGCCGUUCAGUACCAAGUCUCAGGGGAAACUUUGAGAUGGCCUUGCAAAGGGUAUGGUAAUAAGCUGACGGACAUGGUCCUAACCACGCAGCCAAGUCCUAAGUCAACAGAUCUUCUGUUGAUAUGGAUGCAGUUCACAGACUAAAUGUCGGUCGGGGAAGAUGUAUUCUUCUCAUAAGAUAUAGUCGGACCUCUCCUUAAUGGGAGCUAGCGGAUGAAGUGAUGCAACACUGGAGCCGCUGGGAACUAAUUUGUAUGCGAAAGUAUAUUGAUUAGUUUUGGAGUACUCGUGGUCG
Summary of the method: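 DiMSum derived fitness as the error-weighted combination of fold changes across replicates, kanamycin versus no kanamycin, normalised to wild type. E. coli BL21(DE3) held the library, which randomised all eight P1ex-region intron nucleotides within the knt kanamycin-resistance gene on pET-22b(+). Six replicate transformations grew overnight at 37°C or 30°C on LB agar with or without 25 μg/mL kanamycin, also containing 100 μg/mL carbenicillin, 50 μM IPTG and 0.2% rhamnose, and pooled colonies were amplicon-sequenced on an Illumina HiSeq 2500.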

| Sequence | self-splicing fitness (ln) (37 °C) | self-splicing fitness (ln) (30 °C) |
| --- | --- | --- |
| AGGAAGCAAUAUUACGAAAA | -2.42 ± 0.41 |  |
| CAUAAGCAAUAUUACGCUCC | -0.216 ± 0.49 | -2.87 ± 0.23 |
| UACUAGCAAUAUUACGAUCC | -2.84 ± 0.38 | -3.14 ± 0.36 |
| UGUUAGCAAUAUUACGUGCG | -0.303 ± 0.14 | -1.23 ± 0.11 |
| AGUGAGCAAUAUUACGGGGC | -2.75 ± 0.29 |  |
| CCUUAGCAAUAUUACGUUCC | -2.51 ± 0.34 | -3.14 ± 0.31 |
| CUAGAGCAAUAUUACGAUCU | -2.29 ± 0.34 | -4.31 ± 0.34 |
| CAUUAGCAAUAUUACGUAAG | 0.358 ± 0.074 | -0.138 ± 0.057 |
| AGAGAGCAAUAUUACGCAAU | -2.48 ± 0.29 | -3.58 ± 0.43 |
| GUAUAGCAAUAUUACGUAGG | -1.47 ± 0.14 | -3.15 ± 0.16 |
| UCUCAGCAAUAUUACGAACC | -1.69 ± 0.28 | -1.84 ± 0.18 |
| CGUUAGCAAUAUUACGUCCC | -0.641 ± 0.36 |  |
| CUCCAGCAAUAUUACGUUAA | -2.68 ± 0.36 | -3.9 ± 0.25 |
| UGACAGCAAUAUUACGAAUG | -0.604 ± 0.1 | -0.535 ± 0.086 |
| UUCGAGCAAUAUUACGUGGC |  | -1.49 ± 0.48 |
| CACCAGCAAUAUUACGUGAA | -0.875 ± 0.096 | -4.03 ± 0.14 |
| ACGCAGCAAUAUUACGCGUG | -2.07 ± 0.17 | -3.43 ± 0.18 |
| CCGUAGCAAUAUUACGAGCG | -0.719 ± 0.15 | -0.86 ± 0.12 |
| CAUGAGCAAUAUUACGAGAG | -3.27 ± 0.23 | -3.22 ± 0.16 |
| AACUAGCAAUAUUACGAUUA | -0.0303 ± 0.11 | -0.307 ± 0.087 |

| Sequence | self-splicing fitness (ln) (37 °C) | self-splicing fitness (ln) (30 °C) |
| --- | --- | --- |
| CCUGAGCAAUAUUACGGUGC | -2.15 ± 0.43 | -2.51 ± 0.25 |
| GUCAAGCAAUAUUACGUAAU | -0.385 ± 0.061 | -0.836 ± 0.044 |
| CCCUAGCAAUAUUACGGUAC | -3.04 ± 0.32 | -4.33 ± 0.34 |
| CACAAGCAAUAUUACGCAAG | -0.814 ± 0.1 | -1.54 ± 0.087 |
| CUCGAGCAAUAUUACGUUGG | -3.17 ± 0.14 | -3.48 ± 0.18 |
| ACAUAGCAAUAUUACGUAUG | -1.73 ± 0.12 | -2.67 ± 0.12 |
| UCUGAGCAAUAUUACGUCCA | -1.68 ± 0.38 | -2.33 ± 0.3 |
| CUCUAGCAAUAUUACGGGGG | -2.38 ± 0.26 | -3.07 ± 0.3 |
| AGCUAGCAAUAUUACGUAGC | -2.46 ± 0.25 | -1.84 ± 0.12 |
| AUUAAGCAAUAUUACGACUA | -0.207 ± 0.15 | -1.05 ± 0.12 |
| CCCAAGCAAUAUUACGAGAA | -2.87 ± 0.28 | -3.57 ± 0.33 |
| AAGAAGCAAUAUUACGUUCA | 0.133 ± 0.099 | -0.746 ± 0.077 |
| GAGGAGCAAUAUUACGUUUC |  | -2.74 ± 0.42 |
| ACGAAGCAAUAUUACGACGC | -0.221 ± 0.16 | -0.651 ± 0.18 |
| CGUUAGCAAUAUUACGCGUU | -2.39 ± 0.12 | -4.08 ± 0.13 |
| UCACAGCAAUAUUACGUCAA | -1.46 ± 0.13 | -2.7 ± 0.17 |
| GACAAGCAAUAUUACGCGAG | -2.03 ± 0.15 | -1.25 ± 0.11 |
| GGCCAGCAAUAUUACGUGGG | -3.32 ± 0.26 | -4.31 ± 0.21 |
| AAUCAGCAAUAUUACGACGG | -0.991 ± 0.13 | -1.73 ± 0.097 |
